Laboratory results from article PMC5065005 (The FEBS journal, 2016).

Target: the molecule itself
Assay: 1D 1H NMR spectra at increasing protein concentration

B1: human FBxo3 ApaG domain, residues 278–407 (domain or fragment, UniProt Q9UK99 278-407, looked up)
chain: VATTGDITVSVSTSFLPELSSVHPPHYFFTYRIRIEMSKDALPEKACQLDSRYWRITNAKGDVEEVQGPGVVGEFPIISPGRVYEYTSCTTFSTTSGYMEGYYTFHFLYFKDKIFNVAIPRFHMACPTFR
binding result: binds
